Laboratory results from IntAct's records for PubMed 34799561.

B1: Ubiquitin-associated protein 2-like (Homo sapiens), Q14157 (parent)
chain: MMTSVGTNRARGNWEQPQNQNQTQHKQRPQATAEQIRLAQMISDHNDADFEEKVKQLIDITGKNQDECVIALHDCNGDVNRAINVLLEGNPDTHSWEMVGKKKGVSGQKDGGQTESNEEGKENRDRDRDYSRRRGGPPRRGRGASRGREFRGQENGLDGTKSGGPSGRGTERGRRGRGRGRGGSGRRGGRFSAQGMGTFNPADYAEPANTDDNYGNSSGNTWNNTGHFEPDDGTSAWRTATEEWGTEDWNEDLSETKIFTASNVSSVPLPAENVTITAGQRIDLAVLLGKTPSTMENDSSNLDPSQAPSLAQPLVFSNSKQTAISQPASGNTFSHHSMVSMLGKGFGDVGEAKGGSTTGSQFLEQFKTAQALAQLAAQHSQSGSTTTSSWDMGSTTQSPSLVQYDLKNPSDSAVHSPFTKRQAFTPSSTMMEVFLQEKSPAVATSTAAPPPPSSPLPSKSTSAPQMSPGSSDNQSSSPQPAQQKLKQQKKKASLTSKIPALAVEMPGSADISGLNLQFGALQFGSEPVLSDYESTPTTSASSSQAPSSLYTSTASESSSTISSNQSQESGYQSGPIQSTTYTSQNNAQGPLYEQRSTQTRRYPSSISSSPQKDLTQAKNGFSSVQATQLQTTQSVEGATGSAVKSDSPSTSSIPPLNETVSAASLLTTTNQHSSSLGGLSHSEEIPNTTTTQHSSTLSTQQNTLSSSTSSGRTSTSTLLHTSVESEANLHSSSSTFSTTSSTVSAPPPVVSVSSSLNSGSSLGLSLGSNSTVTASTRSSVATTSGKAPPNLPPGVPPLLPNPYIMAPGLLHAYPPQVYGYDDLQMLQTRFPLDYYSIPFPTPTTPLTGRDGSLASNPYSGDLTKFGRGDASSPAPATTLAQPQQNQTQTHHTTQQTFLNPALPPGYSYTSLPYYTGVPGLPSTFQYGPAVFPVAPTSSKQHGVNVSVNASATPFQQPSGYGSHGYNTGVSVTSSNTGVPDISGSVYSKTQQSFEKQGFHSGTPAASFNLPSALGSGGPINPATAAAYPPAPFMHILTPHQQPHSQILHHHLQQDGQTGSGQRSQTSSIPQKPQTNKSAYNSYSWGAN
B2: DNA damage-inducible transcript 3 protein (Homo sapiens), P35638 (parent)
chain: MAAESLPFSFGTLSSWELEAWYEDLQEVLSSDENGGTYVSPPGNEEEESKIFTTLDPASLAWLTEEEPEPAEVTSTSQSPHSPDSSQSSLAQEEEEEDQGRTRKRKQSGHSPARAGKQRMKEKEQENERKVAQLAEENERLKQEIERLTREVEATRRALIDRMVNLHQA

Variants of: B1
Conditions: with G3BP1, Q13283
Target sequence in this assay (Q13283 whole entry, looked up): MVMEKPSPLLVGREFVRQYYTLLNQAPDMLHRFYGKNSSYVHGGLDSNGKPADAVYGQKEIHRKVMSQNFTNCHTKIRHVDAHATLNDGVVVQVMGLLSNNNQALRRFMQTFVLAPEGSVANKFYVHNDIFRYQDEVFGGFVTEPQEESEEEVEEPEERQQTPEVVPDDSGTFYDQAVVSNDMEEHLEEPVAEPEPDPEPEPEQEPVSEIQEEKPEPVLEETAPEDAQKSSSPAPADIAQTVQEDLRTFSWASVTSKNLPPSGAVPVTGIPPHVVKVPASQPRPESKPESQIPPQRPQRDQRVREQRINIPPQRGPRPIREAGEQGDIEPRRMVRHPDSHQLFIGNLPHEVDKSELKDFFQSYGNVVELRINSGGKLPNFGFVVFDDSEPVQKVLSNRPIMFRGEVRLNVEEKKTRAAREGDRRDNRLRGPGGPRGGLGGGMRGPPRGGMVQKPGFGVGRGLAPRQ

Row | Variant | effect of a mutation on the interaction
1 | F518A;F523A | disrupting interaction strength

Variants of: B1
Conditions: with G3BP1, Q13283
Remark: another data set of the same source
Target sequence in this assay (Q13283 whole entry, looked up): as above

Row | Variant | effect of a mutation on the interaction
2 | F518A;F523A | decreasing interaction strength

Variants of: B2
Conditions: with G3BP1, Q13283
Target sequence in this assay (Q13283 whole entry, looked up): as above

Row | Variant | effect of a mutation on the interaction
3 | MAAESLPFSAATLSSWELEAWYEDLQEVLSSDENGGTYVSPPGNEEEESKIFTTLDPASLAWLTEEEPEPAEVTSTSQSPHSPDSSQSSLAQEEEEEDQGRTRKRKQSGHSPARAGKQRMKEKEQENERKVAQLAEENERLKQEIERLTREVEATRRALIDRMVNLHQA [F10A;G11A] | disrupting interaction strength
